{"source": "patent US20240228562A1", "about": "(Pieris, published 2024)", "binders": {"B1": {"name": "fusion protein of SEQ ID NO: 65 (designed binder)", "chain": "QDSTSDLIPAPPLSKVPLQQNFQDNQFHGKWYVVGRAGNNRLREDKDPPKMWATIYELKEDKSYDVTHVHFMTKKCRYIIDTFVPGSQPGEFTLGAIKSGPGMTSPLVRIVSTNYNQHAMVFFKWVNQNREWFTITLYGRTKELTSELKENFIRFSKSLGLPENHIVFPVPIDQCIDGGGGGSGGGGSGGGGSQDSTSDLIPAPPLSKVPLQQNFQDNQFHGKWYVVGLAGNKILRIDKQPAKMFATIYELKEDKSYDVTSVRFEARSCSYTIKTFVPGSQPGEFTAGNIKSAPGQTSTLVRVVSTNYNQHAMVFFKHVSQNRETFVITLYGRTKELTSELKENFIRFSKSLGLPENHIVFPVPIDQCIDG"}, "B2": {"name": "fusion protein of SEQ ID NO: 66 (designed binder)", "chain": "QDSTSDLIPAPPLSKVPLQQNFQDNQFHGKWYVVGLAGNKILRIDKQPAKMFATIYELKEDKSYDVTSVRFEARSCSYTIKTFVPGSQPGEFTAGNIKSAPGQTSTLVRVVSTNYNQHAMVFFKHVSQNRETFVITLYGRTKELTSELKENFIRFSKSLGLPENHIVFPVPIDQCIDGGGGGSGGGGSGGGGSQDSTSDLIPAPPLSKVPLQQNFQDNQFHGKWYVVGRAGNNRLREDKDPPKMWATIYELKEDKSYDVTHVHFMTKKCRYIIDTFVPGSQPGEFTLGAIKSGPGMTSPLVRIVSTNYNQHAMVFFKWVNQNREWFTITLYGRTKELTSELKENFIRFSKSLGLPENHIVFPVPIDQCIDG"}, "B3": {"name": "fusion protein of SEQ ID NO: 67 (designed binder)", "chain": "QDSTSDLIPAPPLSKVPLQQNFQDNQFHGKWYVVGLAGNKILRIDKQPAKMFATIYELKEDKSYDVTSVRFEARSCSYTIKTFVPGSQPGEFTAGNIKSAPGQTSTLVRVVSTNYNQHAMVFFKHVSQNRETFVITLYGRTKELTSELKENFIRFSKSLGLPENHIVFPVPIDQCIDGGGGGSGGGGSGGGGSQDSTSDLIPAPPLSKVPLQQNFQDNQFHGKWYVVGWAGNIKLREDKDPFKMSATIYELKEDKSYDVTEVVFEQKKCHYIIKTFVPGSQPGEFTLGDIKSPPGETSSLVRVVSTNYNQHAMVFFKKVFQNREFFWITLYGRTKELTSELKENFIRFSKSLGLPENHIVFPVPIDQCIDG"}, "B4": {"name": "fusion protein of SEQ ID NO: 63 (designed binder)", "chain": "QDSTSDLIPAPPLSKVPLQQNFQDNQFQGKWYVVGRAGNNQLREDKSPPKMWATIYELKEDKSYDVTHVHFSTKKCRYIIDTFVPGSQPGEFTAGAIKSGPGLTSPLVRVVSTNYNQHAMVFFKWVTQNREWFTITLYGRTKELTSELKENFIRFSKSLGLPENHIVFPVPIDQCIDGGGGGSGGGGSGGGGSQDSTSDLIPAPPLSKVPLQQNFQDNQFQGKWYVVGLAGNAILREDKQPAKMFATIYELKEDKSYDVTSVRFEAKSCKYTIKTFVPGSQPGEFTAGYIKSAPGQTSTLVRVVSTNYNQHAMVFFKHVTQNREIFVITLYGRTKELTSELKENFIRFSKSLGLPENHIVFPVPIDQCIDG", "notes": "not shown: C-terminal His-tag"}, "B5": {"name": "fusion protein of SEQ ID NO: 64 (designed binder)", "chain": "QDSTSDLIPAPPLSKVPLQQNFQDNQFQGKWYVVGLAGNYRLREDKDPSKMGATIYELKEDKSYDVTQVQFDDKKCLYVIETFVPGSQPGEFTLGAIKSYPGLTSQLVRVVSTNYNQHAMVFVKKVWPNLEYFQIVLYGRTKELTSELKENFIRFSKSLGLPENHIVFPVPIDQCIDGGGGGSGGGGSGGGGSQDSTSDLIPAPPLSKVPLQQNFQDNQFQGKWYVVGLAGNAILREDKQPAKMFATIYELKEDKSYDVTSVRFEAKSCKYTIKTFVPGSQPGEFTAGYIKSAPGQTSTLVRVVSTNYNQHAMVFFKHVTQNREIFVITLYGRTKELTSELKENFIRFSKSLGLPENHIVFPVPIDQCIDG", "notes": "not shown: C-terminal His-tag"}, "B6": {"name": "fusion protein of SEQ ID NO: 69 (designed binder)", "chain": "QDSTSDLIPAPPLSKVPLQQNFQDNQFQGKWYVVGLAGNAILREDKQPAKMFATIYELKEDKSYDVTSVRFEAKSCSYTSKTFVPGSQPGEFTAGNIKSAPGQTSTLVRVVSTNYNQHAMVFFKHVSQNRETFVITLYGRTKELTSELKENFIRFSKSLGLPENHIVFPVPIDQCIDGGGGGSGGGGSGGGGSQDSTSDLIPAPPLSKVPLQQNFQDNQFQGKWYVVGLAGNYRLREDKDPSKMGATIYELKEDKSYDVTQVQFDDKKCLYVIETFVPGSQPGEFTLGAIKSYPGLTSQLVRVVSTNYNQHAMVFVKKVWPNLEYFQIVLYGRTKELTSELKENFIRFSKSLGLPENHIVFPVPIDQCIDG", "notes": "not shown: C-terminal His-tag"}, "B7": {"name": "fusion protein of SEQ ID NO: 72 (designed binder)", "chain": "B6 chain with Q47Y, A73N, S77V, S80I, A94T, T132F", "notes": "not shown: C-terminal His-tag"}, "B8": {"name": "fusion protein of SEQ ID NO: 75 (designed binder)", "chain": "B6 chain with S77K, S80I, N96Y, S127T, T132I", "notes": "not shown: C-terminal His-tag"}, "B9": {"name": "fusion protein of SEQ ID NO: 70 (designed binder)", "chain": "QDSTSDLIPAPPLSKVPLQQNFQDNQFQGKWYVVGWAGNVKLREDKQPQKMSATIYELKEDKSYDVTEVVFEQKKCHYIIKTFVPGSQPGEFTAGDIKSPPGYTSSLVRVVSTNYNQHAMVFFKKVSQNREFFWITLYGRTKELTSELKENFIRFSKSLGLPENHIVFPVPIDQCIDGGGGGSGGGGSGGGGSQDSTSDLIPAPPLSKVPLQQNFQDNQFQGKWYVVGLAGNAILREDKQPAKMFATIYELKEDKSYDVTSVRFEAKSCKYTIKTFVPGSQPGEFTAGYIKSAPGQTSTLVRVVSTNYNQHAMVFFKHVTQNREIFVITLYGRTKELTSELKENFIRFSKSLGLPENHIVFPVPIDQCIDG", "notes": "not shown: C-terminal His-tag"}}, "note": "Changes are numbered by the printed parent chain."}
{"target": "T1, recombinant human CTGF protein (R&D Systems, SEQ ID NO: 79) (human, UniProt P29279 27-349)", "T1 construct": "Bought; also called human CTGF/CNN2; huCTGF", "T1 sequence": "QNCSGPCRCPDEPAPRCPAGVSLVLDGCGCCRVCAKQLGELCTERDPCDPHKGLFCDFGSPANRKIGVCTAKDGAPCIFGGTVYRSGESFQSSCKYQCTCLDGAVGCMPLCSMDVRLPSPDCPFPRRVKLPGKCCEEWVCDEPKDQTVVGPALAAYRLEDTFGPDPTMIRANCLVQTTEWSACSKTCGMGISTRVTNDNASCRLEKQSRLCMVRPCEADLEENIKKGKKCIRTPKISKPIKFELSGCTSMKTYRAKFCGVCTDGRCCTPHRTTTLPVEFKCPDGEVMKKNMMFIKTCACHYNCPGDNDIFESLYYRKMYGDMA", "experiment": "ELISA, coated human CTGF", "experimental": "Binding of fusion proteins was tested by an ELISA assay. In detail, a 384-well plate suitable for fluorescence measurements (Greiner FLUOTRAC™ 600, black flat bottom, high-binding) was coated with 20 μl of human CTGF (R&D Systems) at a concentration of 1 μg/ml in PBS over night at 4° C. After washing with PBS with 0.05% Tween 20, wells were blocked with 100 μl blocking buffer containing 0.1% Tween 20 and 2% BSA (PBS-T/BSA) for 1 h at room temperature. 20 μl of serially diluted muteins were incubated in PBS-T/BSA for 1 h at room temperature (RT).\nThe residual supernatants were discarded and 20 μl HRP-labeled anti-NGAL or anti-His-Tag antibody was added at a predetermined optimal concentration in PBS-T/BSA and incubated for 1 h at RT. After washing, 20 μl fluorogenic HRP substrate (QuantaBlu, Thermo) was added to each well, and the reaction was allowed to proceed for 2 to 60 minutes. The fluorescence intensity of every well on the plate was read using a fluorescence microplate reader (Tecan). Curve fitting was performed using GraphPad Prism 7 or 8 software.", "units": {"EC50": "nM"}}
{"binder": "B1", "EC50": 0.61}
{"binder": "B2", "EC50": 1.2}
{"binder": "B3", "EC50": 1}
{"target": "T1, recombinant human CTGF protein (R&D …)", "experiment": "HTRF, 1 nM biotinylated human CTGF", "experimental": "Binding of some fusion proteins was tested by a Homogeneous Time Resolved Fluorescence (HTRF assay). In detail, 1 nM of biotinylated human CTGF (R&D Systems) was incubated for 1 h with a titration of some lipocalins starting at 5 nM in 384 Flat Bottom White Polystyrol microtiter plate (Greiner). Samples were diluted in PBS containing 0.1% Tween 20 and 2% BSA. As donor, Streptavidin-Terbium at a concentration of 0,006 μg/mL was used, the acceptor was 0.2 μg/mL anti-His-d2 (both CisBio). After another 1 h of incubation, the fluorescence intensity of the donor and acceptor on the plate was read using a fluorescence microplate reader M1000 (Tecan) with the standard settings recommended by CisBio. The calculated ratio of signals was used for the curve fitting performed in GraphPad Prism 7 software.", "units": {"EC50": "nM"}}
{"binder": "B4", "EC50": 0.58}
{"binder": "B5", "EC50": 0.58}
{"binder": "B6", "EC50": 0.65}
{"binder": "B7", "EC50": 0.68}
{"binder": "B8", "EC50": 0.7}
{"binder": "B9", "EC50": 0.72}
